According to patent publication US20220025008A1 (FAPON BIOTECH, published 2022):
Where a chain is given by its changes, count along the chain named. Each block holds one binder with its values, some of them ahead of it.

Molecular target: T1, Recombinant NT antigen (N-terminal pro-brain natriuretic peptide, NT-proBNP) (human, UniProt P16860 27-102)
T1 construct: domain: N-terminal pro-brain natriuretic peptide (NT-proBNP); also called recombinant NT protein; N-terminal pro-B-type natriuretic peptide
T1 sequence (looked up): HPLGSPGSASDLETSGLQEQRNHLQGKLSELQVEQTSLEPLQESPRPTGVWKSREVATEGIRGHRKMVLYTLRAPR
Assay: indirect ELISA, KD calculated from half-max OD at 4 coating concentrations
Procedure: Recombinant NT antigen was diluted with coating solution to 1 μg/ml a microplate overnight at 4° C.; which was washed twice with washing solution and patted dry on the next day; with addition of blocking solution (20% BSA+80% PBS) at 120 μL per well at 37° C. for 1 h and patted dry; added the diluted NT monoclonal antibody, 100 μL/well at 37° C. for 30 min (partial supernatant for 1 h); washed 5 times with washing solution and patted dry; added rabbit anti-goat IgG-HRP […] per well at 37° C. for 30 min; washed 5 times with washing solution and patted dry; added color developing solution A (50 μL/well), added color developing solution B (50 μL/well) for 10 min; added stop solution, 50 μL/well; followed by reading the OD value at 450 nm (reference 630 nm) on the microplate reader.
Data from the enzyme immunoassay indirect method were analyzed in the same way as the activity identification, with four gradients of 3 μg/ml, 1.5 μg/ml, 0.75 μg/ml and 0.375 μg/ml for coating; the antibody was diluted from 1000 ng/ml by 2 times to 0.977 ng/ml for loading sample. OD values corresponding to different antibody concentrations at different coating concentrations were obtained. Under the same coating concentration, data were plotted logarithmically with the antibody concentration as the abscissa and the OD value as the ordinate.

Kd: 3.02 nM
B1: WT 1-4 (antibody)
heavy: QVRLQESGPSQVKPAQTLSLTCAISGPSVTTYYVDWVRHTPGKPPEWLAQMTKDANAVHQPTLRSRLSITRDTSKSQVFLKLTGVTTEDTAVYYCVKGVIDFGPGLLVTVSSASTTPPKVYPLTSCCGDTSSSIVTLGCLVSSYMPEPVTVTWNSGALTSGVHTFPAILQSSGLYSLSSVVTVPASTSGAQTFICNVAHPASSTKVDKRVEPGCPDPCKHCRCPPPELPGGPSVFIFPPKPKDTLTISGTPEVTCVVVDVGQDDPEVQFSWFVDNVEVRTARTKPREEQFNSTFRVVSALPIQHQDWTGGKEFKCKVHNEGLPAPIVRTISRTKGQAREPQVYVLAPPQEELSKSTLSVTCLVTGFYPDYIAVEWQKNGQPESEDKYGTTTSQLDADGSYFLYSRLRVDKNSWQEGDTYACVVMHEALHNHYTQKSISKPPGK
light: QAVLTQPSSVSRSLGQTVSITCSGSSDQVGPGDYVNWFQLIPGSAPKTLIFAATSRIRGVPDRFSGSRSGNTATLTINSLQAEDEADYYCGSGNSRGGYVWGSGTRLTVLSQPKSAPSVTLFPPSKEELDTNKATVVCLISDFYPGSVNVVWKADGSTINQNVKTTQASKQSNSKYAASSYLTLTGSEWKSKSSYTCEVTHEGSTVTKTVKPSECS

Kd: 1.51 nM
B2: Mutation 1-35 (antibody)
heavy: B1 heavy with P27F, A55G, L63I, K97R
light: B1 light with P31F, A52G, T54Y, I57V, G93P, W101F

Kd: 1.56 nM
B3: Mutation 1-9 (antibody)
heavy: B1 heavy with P27F, V29I, V34I, A55G, K97R, V99L
light: B1 light with P31F, V35I, A52G, T54S, G93A, W101F

Kd: 0.81 nM
B4: Mutation 1-23 (antibody)
heavy: B1 heavy with P27F, V29L, A55G, L63I, K97R
light: B1 light with P31F, A52G, T54Y, I57V, G93P, W101F

Kd: 1.52 nM
B5: Mutation 1-11 (antibody)
heavy: B1 heavy with P27F, V29I, A55G, L63I, K97R
light: B1 light with P31F, A52G, T54S, I57V, G93P, W101F

Kd: 1.51 nM
B6: Mutation 1-19 (antibody)
heavy: B1 heavy with P27F, V29I, V34L, A55G, L63V, K97R, V99I
light: QAVLTQPSSVSRSLGQTVSITCSGSSDNVGFGDYLNWFQLIPGSAPKTLIFGATSRLRGVPDRFSGSRSGNTATLTINSLQAEDEADYYCGSGNSRNYVFGSGTRLTVLSQPKSAPSVTLFPPSKEELDTNKATVVCLISDFYPGSVNVVWKADGSTINQNVKTTQASKQSNSKYAASSYLTLTGSEWKSKSSYTCEVTHEGSTVTKTVKPSECS

Kd: 3.39 nM
B7: Mutation 1-17 (antibody)
heavy: B1 heavy with P27F, A55G, Q60N, L63V, K97R
light: B6 light with L35I, L57V

Kd: 1.49 nM
B8: Mutation 1-29 (antibody)
heavy: B1 heavy with P27F, V29I, A55G, Q60N, L63V, K97R
light: B6 light with L35I, T54S, L57V

Kd: 6.1 nM
B9: Mutation 1-5 (antibody)
heavy: B1 heavy with P27F, V29L, A55G, Q60N, L63V, K97R
light: B6 light with L35I, T54Y, L57V

Kd: 5.05 nM
B10: WT 1-7 (antibody, V domains shown)
VH: QVRLQESGPSQVKPAQTLSLTCAISGPSVTTYYLDWVRHTPGKPPEWLAQMTKDANAVHQPTVRSRLSITRDTSKSQVFLKLTGVTTEDTAVYYCVKGVIDWGPGLLVTVSS
V domain: QAVLTQPSSVSRSLGQTVSITCSGSSDNVGPGDYINWFQLIPGSAPKTLIFAAYSRLRGVPDRFSGSRSGNTATLTINSLQAEDEADYYCGSGNSRGGYVWGSGTRLTVLS

Kd: 6.14 nM
B11: WT 1-6 (antibody, V domains shown)
VH: B10 VH with V29I, L34V, V63I, V99L
V domain: B10 V domain with N28Q, I35L, Y54S, G93A

Kd: 1.17 nM
B12: Mutation 1-6 (antibody, V domains shown)
VH: B10 VH with P27F, L34I, A55G, Q60N, K97R, V99I
VL: QAVLTQPSSVSRSLGQTVSITCSGSSDNVGFGDYINWFQLIPGSAPKTLIFGASSRIRGVPDRFSGSRSGNTATLTINSLQAEDEADYYCGSPNSRNYVFGSGTRLTVLS

Kd: 2.66 nM
B13: Mutation 1-30 (antibody, V domains shown)
VH: B10 VH with P27F, V29L, L34I, A55G, Q60N, K97R, V99I
VL: B12 VL with S54T

Kd: 1.73 nM
B14: Mutation 1-18 (antibody, V domains shown)
VH: B10 VH with P27F, V29I, L34I, A55G, Q60N, K97R, V99I
VL: B12 VL with S54T
